In publication PMC3985488:
Substitutions are numbered along the chain they refer to.

Assays:
Dpo4 Y274W = molecular target: T1, Dpo4 Y274W (Sulfolobus solfataricus, UniProt Q97W02 1-352, C31S;Y274W); assay: steady-state Trp fluorescence
T1 sequence: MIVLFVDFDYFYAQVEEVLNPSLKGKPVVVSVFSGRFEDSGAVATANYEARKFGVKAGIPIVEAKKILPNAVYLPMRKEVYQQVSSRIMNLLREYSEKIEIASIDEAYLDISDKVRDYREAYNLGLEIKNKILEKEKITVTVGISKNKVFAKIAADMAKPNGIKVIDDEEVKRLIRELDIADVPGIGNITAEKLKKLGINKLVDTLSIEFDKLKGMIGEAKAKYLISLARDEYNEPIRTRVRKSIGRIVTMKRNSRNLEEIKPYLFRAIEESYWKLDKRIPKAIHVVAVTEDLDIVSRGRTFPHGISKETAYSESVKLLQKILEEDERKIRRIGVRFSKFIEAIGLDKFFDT

Dpo4 Y108W-K329C-CPM = molecular target: T2, Dpo4 Y108W-K329C-CPM (Sulfolobus solfataricus, UniProt Q97W02 1-352, C31S;Y108W;K329C); assay: stopped-flow FRET
T2 sequence: T1 sequence with Y108W, W274Y, K329C

Dpo4 Y108W = molecular target: T3, Dpo4 Y108W (Sulfolobus solfataricus, UniProt Q97W02 1-352, C31S;Y108W); assay: steady-state Trp fluorescence
T3 sequence: T1 sequence with Y108W, W274Y

Measured: binding result

B1: DNAOH 21/30-mer (dsDNA)
DNA 1: CGAGCCGTCGCATCCTACCGC
DNA 2: GATGCTGCAGCGGTAGGATGCGACGGCTCG
binds: all assays above
